Results on five molecules are retold here after patent US20230159961A1, “BIOSYNTHESIS OF CHEMICALLY DIVERSIFIED NON-NATURAL TERPENE PRODUCTS” (Board of Trustees of Michigan State University, priority 2019, published 2023).

The subject of assay [1] is Coleus forskohlii CfTPS2 and Salvia sclarea SsSCS. As to the kind of experiment: coupled class II / class I in vitro assay with methyl-GGDP (C21) substrate. It counts as biochemical. The following applies: CfTPS2 and SsSCS used together; product structure similar to sclareol (FIG. 10). As to the method: A typical high-throughput in vitro diTPS assay in lml contained 5 μg substrate, 200 μg purified enzyme (class II plus class I for labdanoid-type diterpenes, or class I for irregular diterpenes), and 10mM buffer with magnesium. Reactions are carried out for 1 hour at 16° C., followed by vortexing with an equal volume of hexane to extract the products into the organic phase, prior to removal for GC/MS analysis.
Reactions leading to novel compounds can be scaled up for structural elucidation. The scale-up procedure involved the same composition. However, in coupled assays of pairs of diTPS, the class II enzyme may be pre-incubated with substrate for two hours, before adding the class I diTPS.
Enzymes Coleus forskohlii CfTPS2 (SEQ ID NO:69) and Salvia sclarea SsSCS (SEQ ID NO:61) were coupled in an in vitro assay to ascertain whether the synthetic unnatural methyl-GGDP (C21) substrate can efficiently yield the corresponding C21 methyl-diterpene.

For assay [2], the system named is DgTPS1 (casbene synthase). As to the kind of experiment: in vitro diTPS assay: casbene synthase DgTPS1 reacted with unGGPP, products by GC/MS. It counts as biochemical, Daphne genkwa. To be noted: product mass consistent with a methyl-derivative of casbene. How it is done:
A conserved irregular, macrocyclic structure is consistent with the fragmentation pattern of the major fragments of casbene (FIG. 5C-5D).
To assess substrate tolerance of class II diTPS, substrates are screened against a panel of twenty-five enzymes. Recombinant diTPS were expressed heterologously in E. coli, purified, and reconstituted in in vitro assays with the substrate to be tested. The products from the enzymatic action on the substrate were analyzed structural elucidation and downstream functionalization.
In particular, pET28b+plasmids containing N-terminally truncated diTPS variants (having the plastidial targeting signal removed to generate pseudomature enzymes) are transformed into E. coli BL-21DE3-C41 OverExpress cells. Cultures are grown at 37° C. and 180 rpm until the optical density at 600 nm reached 0.3 to 0.4. Cultures are cooled to 16° C., and expression is induced at an optical density at 600 nm of approximately 0.6 with 0.2 mM isopropylthiogalactoside. Cells are collected and lysed before purification of the His6-tagged enzymes with Ni-NTA columns.
A typical high-throughput in vitro diTPS assay in lml contained 5 μg substrate, 200 μg purified enzyme (class II plus class I for labdanoid-type diterpenes, or class I for irregular diterpenes), and 10mM buffer with magnesium. […]

Assay [3] concerns class I labdane-type diTPS. The assay is described as follows: class I labdane-type diTPS and tested substrates converted (Table 2). To be noted: decalin-core diphosphate substrates that the enzyme converted, enzymes functionally expressed. It counts as biochemical. An excerpt:
Instead of accepting the acyclic GGPP, class I enzymes can use structurally diverse decalin-core diphosphate intermediates generated by class II enzymes. At this stage, additional cyclizations, double-bond-, hydride and alkyl shifts can occur, followed by either proton abstraction or quenching of the final carbocation through a water molecule.
All enzymes in Table 2 were functionally expressed. Microbial sequences were expressed as synthetic variants, expression optimized for E. coli. See also FIG. 7.

For the molecule `CC(C)=CCC/C(C)=C/CC/C(C)=C/CC/C(C)=C(\C)COP(=O)(O)OP(=O)(O)O` [methyl-GGDP (C21)], the “product formation in coupled enzyme assay” value in assay [1] is on record as “new methyl-diterpene product”. On to `CC(C)=CCC/C(C)=C/CC/C(C)=C/CC/C(C)=C(\C)COP(=O)(O)OP(=O)(O)O` [unGGPP], for which, in assay [2], the “conversion of substrate to product, detected by gas chromatography / GC-MS” value was “novel product with a shifted retention time”.

B1: KgTPS2 (protein, listed as Kitasatospora griseola)
chain: MPDAIEFEHEGRRNPNSAEAESAYSSIIAALDLQESDYAVISGHSRIVGAAALVYPDADAETLLAASLWTACLIVNDDRWDYVQEDGGRLAPGEWFDGVTEVVDTWRTAGPRLPDPFFELVRTTMSRLDAALGAEAADEIGHEIKRAITAMKWEGVWNEYTKKTSLATYLSFRRGYCTMDVQVVLDKWINGGRSFAALRDDPVRRAIDDVVVRFGCLSNDYYSWGREKKAVDKSNAVRILMDHAGYDESTALAHVRDDCVQAITDLDCIEESIKRSGHLGSHAQELLDYLACHRPLIYAAATWPTETNRYR
With B1, in assay [3], the “Substrate (tested substrates converted)” value is reported as “ent-, syn-, (+)-CPP, (+)-8-LPP, ent-8-LPP, KPP, 9-LPP”.

B2: ArTPS3 (protein)
chain: MSLSFTIKVTPFSGQRVHSSTESFPIQQFPTITTKSAMAVKCSSLSTATVSFQDFVGKIRDTINGKVDNSPAATTIHPADIPSNLCVVDTLQRLGVDRYFQSEIDSVLNDTYRFWQQKGEDIFTDVACRAMAFRLLRVKGYEVSSDELASYAEQEHVNLQPSDITTVIELYRASQTRLYEDEGNLEKLHTWTSNFLKQQLQSETISDEKLHKQVEYYLKNYHGILDRAGVRQSLDLYDINQYQNLKSTDRFPTLSNEDLLEFAKQDFNFCQAQHQKELQQLQRWYADCKLDTLTYGRDVVRVASFLTAAIFGEPEFSDARLAFAKHIILVTRIDDFFDHGGSIEESYKILDLVKEWEDKPAEEYPSKEVEILFTAVYNTVNDLAEMAYIEQGRSIKPLLIKLWVEILTSFKKELDSWTEDTELTLEEYLASSWVSIGCRICSLNSLQFLGITLSEEMLSSEECMELCRHVSSVDRLLNDVQTFEKERLENTINSVSLQLAEAQREGRTITEEEAMSKIKDLADYHRRQLMQMVYKDGTIFPRQCKDVFLRVCRIGYYLYASGDEFTTPQQMMGDMKSLVYEPLNTSSS
modifications: Ajuga reptans
On to B2, for which the “Substrate (tested substrates converted)” value in assay [3] is listed as “PgPP, (+)-CPP, (+)-8-LPP, ent-CPP”.

B3: SsSCS (protein, listed as Salvia sclarea)
chain: MSLAFNVGVTPFSGQRVGSRKEKFPVQGFPVTTPNRSRLIVNCSLTTIDFMAKMKENFKREDDKFPTTTTLRSEDIPSNLCIIDTLQRLGVDQFFQYEINTILDNTFRLWQEKHKVIYGNVTTHAMAFRLLRVKGYEVSSEELAPYGNQEAVSQQTNDLPMIIELYRAANERIYEEERSLEKILAWTTIFLNKQVQDNSIPDKKLHKLVEFYLRNYKGITIRLGARRNLELYDMTYYQALKSTNRFSNLCNEDFLVFAKQDFDIHEAQNQKGLQQLQRWYADCRLDTLNFGRDVVIIANYLASLIIGDHAFDYVRLAFAKTSVLVTIMDDFFDCHGSSQECDKIIELVKEWKENPDAEYGSEELEILFMALYNTVNELAERARVEQGRSVKEFLVKLWVEILSAFKIELDTWSNGTQQSFDEYISSSWLSNGSRLTGLLTMQFVGVKLSDEMLMSEECTDLARHVCMVGRLLNDVCSSEREREENIAGKSYSILLATEKDGRKVSEDEAIAEINEMVEYHWRKVLQIVYKKESILPRRCKDVFLEMAKGTFYAYGINDELTSPQQSKEDMKSFVF
As for B3, the “Substrate (tested substrates converted)” value in assay [3] is reported as “ent-, syn-, (+)-CPP, (+)-8-LPP, ent-8-LPP, KPP, 9-LPP”.
